Measured values published in article PMC11856660 (PLOS Pathogens, 2025).

Target: the molecule itself
Assay: […] (25 mM HEPES pH 8, 300 mM NaCl, 10% glycerol, 1 mM TCEP); […]; 20 °C; […]

B1: HCoV-229E nsp15 protein, wild type (recombinant, hexameric) (enzyme)
chain: GLENIAFNVVNKGSFVGADGELPVAISGDKVFVRDGNTDNLVFVNKTSLPTNIAFELFAKRKVGLTPPLSILKNLGVVATYKFVLWDYEAERPLTSFTKSVCGYTDFAEDVCTCYDNSIQGSYERFTLSTNAVLFSATAVKTGGKSLPAIKLNFGMLNGNAIATVKSEDGNIKNINWFVYVRKDGKPVDHYDGFYTQGRNLQDFLPRSTMEEDFLNMDIGVFIQKYGLEDFNFEHVVYGDVSKTTLGGLHLLISQVRLSKMGILKAEEFVAASDITLKCCTVTYLNDPSSKTVCTYMDLLLDDFVSVLKSLDLTVVSKVHEVIIDNKPWRWMLWCKDNAVATFYPQLQ
notes: source: T7 Express E. coli, purified (Ni-NTA, SEC)
With B1 the “stoichiometry N” value was 6.
